Test results taken from US20260015399A1 (Boehringer Ingelheim, published 2026).
*1 amine or outer side, *2 acyl side, *3 side chain or, on linkers, in order; H or OH if unused. Side-chain parts run from the residue outwards. The star is where a group is joined. C18 diacid = O=C(O)CCCCCCCCCCCCCCCCC(=O)*; γGlu = O=C(O)[C@H](CCC(=O)[*:2])N[*:1]; Isovaleryl = CC(C)CC(=O)*; Ahx = NCCCCCC(=O)O

Molecular target: T1, human NPY2 receptor (human, UniProt P49146 1-381)
T1 construct: whole, on cells; also called hNPY2-R; hNPY2R
T1 sequence (looked up): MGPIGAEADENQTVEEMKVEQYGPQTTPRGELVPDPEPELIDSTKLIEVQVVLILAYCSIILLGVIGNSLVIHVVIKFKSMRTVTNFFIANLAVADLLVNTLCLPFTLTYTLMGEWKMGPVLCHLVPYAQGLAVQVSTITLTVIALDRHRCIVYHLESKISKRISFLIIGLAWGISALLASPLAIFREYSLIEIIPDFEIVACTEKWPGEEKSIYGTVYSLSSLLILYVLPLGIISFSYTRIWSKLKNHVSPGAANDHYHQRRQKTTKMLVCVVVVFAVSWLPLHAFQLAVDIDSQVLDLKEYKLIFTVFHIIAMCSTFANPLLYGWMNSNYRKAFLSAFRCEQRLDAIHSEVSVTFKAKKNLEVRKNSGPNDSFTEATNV
Test: RLB: displacement of 125I-PYY(1-36) from hNPY2R membranes
Protocol: The filtration RLB assay was carried out in 96-well plates in a final volume of 100 μl per well. Freeze-dried test peptides were dissolved in 100% dimethyl sulfoxide (DMSO) to stock solutions of 1 mM and serial dilutions were performed in assay buffer (50 mM HEPES, 5 mM MgCl₂, 1 mM CaCl₂), pH 7.4) containing 0.2% ovalbumin. […] Next, 80 μL membranes (HTS066M, ChemiSCREEN™ Human Neuropeptide Y2 Receptor Membrane Preparation, CHEMICON) were added to each well to give a final protein concentration of 0.5 μg/well. The plates were sealed and incubated at room temperature for 2 hours in a plate shaker set at 400 rpm. The incubation was stopped by vacuum filtration onto 0.5% polyethylene amine (PEI) presoaked GF/C filters using a 96-well FilterMate™ harvester (Perkin Elmer) followed by four washes with 300 μl/well ice-cold wash buffer (50 mM HEPES, 500 mM NaCl, pH7.4). Filter plates were then dried for 60 min at room temperature and the bottom of the plates was sealed with backing tape UniFilter-96. Finally, 50 μl/well scintillation counter cocktail (Microscint20, Packard) was added and the radioactivity was counted in the Packard TopCount NXT scintillation counter. IC₅₀ values (the half maximal inhibitory concentration of the agonist) were calculated by nonlinear regression analysis of sigmoidal dose-response curves.

Binder	Ki
Isovaleryl-APEK([Ahx-γGlu-C18 diacid])PEEQATPEELQRYYVSLRHYYNWLTRQRY-NH2 (SMILES CC(C)CC(=O)N[C@@H](C)C(=O)N1CCC[C@H]1C(=O)N[C@@H](CCC(=O)O)C(=O)N[C@@H](CCCCNC(=O)CCCCCNC(=O)CC[C@H](NC(=O)CCCCCCCCCCCCCCCCC(=O)O)C(=O)O)C(=O)N1CCC[C@H]1C(=O)N[C@@H](CCC(=O)O)C(=O)N[C@@H](CCC(=O)O)C(=O)N[C@@H](CCC(N)=O)C(=O)N[C@@H](C)C(=O)N[C@H](C(=O)N1CCC[C@H]1C(=O)N[C@@H](CCC(=O)O)C(=O)N[C@@H](CCC(=O)O)C(=O)N[C@@H](CC(C)C)C(=O)N[C@@H](CCC(N)=O)C(=O)N[C@@H](CCCNC(=N)N)C(=O)N[C@@H](Cc1ccc(O)cc1)C(=O)N[C@@H](Cc1ccc(O)cc1)C(=O)N[C@H](C(=O)N[C@@H](CO)C(=O)N[C@@H](CC(C)C)C(=O)N[C@@H](CCCNC(=N)N)C(=O)N[C@@H](Cc1c[nH]cn1)C(=O)N[C@@H](Cc1ccc(O)cc1)C(=O)N[C@@H](Cc1ccc(O)cc1)C(=O)N[C@@H](CC(N)=O)C(=O)N[C@@H](Cc1c[nH]c2ccccc12)C(=O)N[C@@H](CC(C)C)C(=O)N[C@H](C(=O)N[C@@H](CCCNC(=N)N)C(=O)N[C@@H](CCC(N)=O)C(=O)N[C@@H](CCCNC(=N)N)C(=O)N[C@@H](Cc1ccc(O)cc1)C(N)=O)[C@@H](C)O)C(C)C)[C@@H](C)O) [Compound 9]	3.32 nM
Isovaleryl-APEK([Ahx-γGlu-C18 diacid])PEEDATPEEIQRYYPSLRHYYNWLTRQRY-NH2 (SMILES CC[C@H](C)[C@H](NC(=O)[C@H](CCC(=O)O)NC(=O)[C@H](CCC(=O)O)NC(=O)[C@@H]1CCCN1C(=O)[C@@H](NC(=O)[C@H](C)NC(=O)[C@H](CC(=O)O)NC(=O)[C@H](CCC(=O)O)NC(=O)[C@H](CCC(=O)O)NC(=O)[C@@H]1CCCN1C(=O)[C@H](CCCCNC(=O)CCCCCNC(=O)CC[C@H](NC(=O)CCCCCCCCCCCCCCCCC(=O)O)C(=O)O)NC(=O)[C@H](CCC(=O)O)NC(=O)[C@@H]1CCCN1C(=O)[C@H](C)NC(=O)CC(C)C)[C@@H](C)O)C(=O)N[C@@H](CCC(N)=O)C(=O)N[C@@H](CCCNC(=N)N)C(=O)N[C@@H](Cc1ccc(O)cc1)C(=O)N[C@@H](Cc1ccc(O)cc1)C(=O)N1CCC[C@H]1C(=O)N[C@@H](CO)C(=O)N[C@@H](CC(C)C)C(=O)N[C@@H](CCCNC(=N)N)C(=O)N[C@@H](Cc1c[nH]cn1)C(=O)N[C@@H](Cc1ccc(O)cc1)C(=O)N[C@@H](Cc1ccc(O)cc1)C(=O)N[C@@H](CC(N)=O)C(=O)N[C@@H](Cc1c[nH]c2ccccc12)C(=O)N[C@@H](CC(C)C)C(=O)N[C@H](C(=O)N[C@@H](CCCNC(=N)N)C(=O)N[C@@H](CCC(N)=O)C(=O)N[C@@H](CCCNC(=N)N)C(=O)N[C@@H](Cc1ccc(O)cc1)C(N)=O)[C@@H](C)O) [Compound 17]	24.6 nM
Isovaleryl-APAK([Ahx-γGlu-C18 diacid])PEEDASPEELQRYQVSLRHYYNWLTRQRY-NH2 (SMILES CC(C)CC(=O)N[C@@H](C)C(=O)N1CCC[C@H]1C(=O)N[C@@H](C)C(=O)N[C@@H](CCCCNC(=O)CCCCCNC(=O)CC[C@H](NC(=O)CCCCCCCCCCCCCCCCC(=O)O)C(=O)O)C(=O)N1CCC[C@H]1C(=O)N[C@@H](CCC(=O)O)C(=O)N[C@@H](CCC(=O)O)C(=O)N[C@@H](CC(=O)O)C(=O)N[C@@H](C)C(=O)N[C@@H](CO)C(=O)N1CCC[C@H]1C(=O)N[C@@H](CCC(=O)O)C(=O)N[C@@H](CCC(=O)O)C(=O)N[C@@H](CC(C)C)C(=O)N[C@@H](CCC(N)=O)C(=O)N[C@@H](CCCNC(=N)N)C(=O)N[C@@H](Cc1ccc(O)cc1)C(=O)N[C@@H](CCC(N)=O)C(=O)N[C@H](C(=O)N[C@@H](CO)C(=O)N[C@@H](CC(C)C)C(=O)N[C@@H](CCCNC(=N)N)C(=O)N[C@@H](Cc1c[nH]cn1)C(=O)N[C@@H](Cc1ccc(O)cc1)C(=O)N[C@@H](Cc1ccc(O)cc1)C(=O)N[C@@H](CC(N)=O)C(=O)N[C@@H](Cc1c[nH]c2ccccc12)C(=O)N[C@@H](CC(C)C)C(=O)N[C@H](C(=O)N[C@@H](CCCNC(=N)N)C(=O)N[C@@H](CCC(N)=O)C(=O)N[C@@H](CCCNC(=N)N)C(=O)N[C@@H](Cc1ccc(O)cc1)C(N)=O)[C@@H](C)O)C(C)C) [Compound 20]	2.41 nM
Isovaleryl-APEK([Ahx-γGlu-C18 diacid])PEADASPEETQRYYVSLRHYYNWLTRQRY-NH2 (SMILES CC(C)CC(=O)N[C@@H](C)C(=O)N1CCC[C@H]1C(=O)N[C@@H](CCC(=O)O)C(=O)N[C@@H](CCCCNC(=O)CCCCCNC(=O)CC[C@H](NC(=O)CCCCCCCCCCCCCCCCC(=O)O)C(=O)O)C(=O)N1CCC[C@H]1C(=O)N[C@@H](CCC(=O)O)C(=O)N[C@@H](C)C(=O)N[C@@H](CC(=O)O)C(=O)N[C@@H](C)C(=O)N[C@@H](CO)C(=O)N1CCC[C@H]1C(=O)N[C@@H](CCC(=O)O)C(=O)N[C@@H](CCC(=O)O)C(=O)N[C@H](C(=O)N[C@@H](CCC(N)=O)C(=O)N[C@@H](CCCNC(=N)N)C(=O)N[C@@H](Cc1ccc(O)cc1)C(=O)N[C@@H](Cc1ccc(O)cc1)C(=O)N[C@H](C(=O)N[C@@H](CO)C(=O)N[C@@H](CC(C)C)C(=O)N[C@@H](CCCNC(=N)N)C(=O)N[C@@H](Cc1c[nH]cn1)C(=O)N[C@@H](Cc1ccc(O)cc1)C(=O)N[C@@H](Cc1ccc(O)cc1)C(=O)N[C@@H](CC(N)=O)C(=O)N[C@@H](Cc1c[nH]c2ccccc12)C(=O)N[C@@H](CC(C)C)C(=O)N[C@H](C(=O)N[C@@H](CCCNC(=N)N)C(=O)N[C@@H](CCC(N)=O)C(=O)N[C@@H](CCCNC(=N)N)C(=O)N[C@@H](Cc1ccc(O)cc1)C(N)=O)[C@@H](C)O)C(C)C)[C@@H](C)O) [Compound 13]	1.53 nM
Isovaleryl-APEK([Ahx-γGlu-C18 diacid])PEEDATEEELQRYYVSLRHYYNWLTRQRY-NH2 (SMILES CC(C)CC(=O)N[C@@H](C)C(=O)N1CCC[C@H]1C(=O)N[C@@H](CCC(=O)O)C(=O)N[C@@H](CCCCNC(=O)CCCCCNC(=O)CC[C@H](NC(=O)CCCCCCCCCCCCCCCCC(=O)O)C(=O)O)C(=O)N1CCC[C@H]1C(=O)N[C@@H](CCC(=O)O)C(=O)N[C@@H](CCC(=O)O)C(=O)N[C@@H](CC(=O)O)C(=O)N[C@@H](C)C(=O)N[C@H](C(=O)N[C@@H](CCC(=O)O)C(=O)N[C@@H](CCC(=O)O)C(=O)N[C@@H](CCC(=O)O)C(=O)N[C@@H](CC(C)C)C(=O)N[C@@H](CCC(N)=O)C(=O)N[C@@H](CCCNC(=N)N)C(=O)N[C@@H](Cc1ccc(O)cc1)C(=O)N[C@@H](Cc1ccc(O)cc1)C(=O)N[C@H](C(=O)N[C@@H](CO)C(=O)N[C@@H](CC(C)C)C(=O)N[C@@H](CCCNC(=N)N)C(=O)N[C@@H](Cc1c[nH]cn1)C(=O)N[C@@H](Cc1ccc(O)cc1)C(=O)N[C@@H](Cc1ccc(O)cc1)C(=O)N[C@@H](CC(N)=O)C(=O)N[C@@H](Cc1c[nH]c2ccccc12)C(=O)N[C@@H](CC(C)C)C(=O)N[C@H](C(=O)N[C@@H](CCCNC(=N)N)C(=O)N[C@@H](CCC(N)=O)C(=O)N[C@@H](CCCNC(=N)N)C(=O)N[C@@H](Cc1ccc(O)cc1)C(N)=O)[C@@H](C)O)C(C)C)[C@@H](C)O) [Compound 19]	9.63 nM
